The record followed here is patent US20220411483A1 (Chugai, published 2022).

Positions count from the first letter of the chain named.

To fix the notation:
T1: FcγRIIb extracellular domain, His tag (human, UniProt P31994 43-217)
T1 construct: extracellular domain; also called FcgRIIb
T1 sequence (looked up): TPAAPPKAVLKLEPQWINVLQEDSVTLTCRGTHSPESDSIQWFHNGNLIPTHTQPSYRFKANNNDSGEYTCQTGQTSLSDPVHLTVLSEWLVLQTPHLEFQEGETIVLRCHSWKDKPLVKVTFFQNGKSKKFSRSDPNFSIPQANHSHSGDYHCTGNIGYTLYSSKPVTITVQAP

T2: FcγRIIa R type extracellular domain, His tag (human, UniProt P12318 34-217)
T2 construct: extracellular domain; also called FcgRIIaR
T2 sequence (looked up): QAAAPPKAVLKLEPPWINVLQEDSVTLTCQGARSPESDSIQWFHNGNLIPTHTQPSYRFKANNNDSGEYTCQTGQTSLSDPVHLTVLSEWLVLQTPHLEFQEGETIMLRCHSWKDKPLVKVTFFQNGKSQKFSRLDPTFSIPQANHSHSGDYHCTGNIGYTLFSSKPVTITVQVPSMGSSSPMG

T3: FcγRIIa R type extracellular domain with C-terminal His tag (human, UniProt P12318 34-217)
T3 construct: extracellular domain; also called FcgRIIaR
T3 sequence (looked up): T2 sequence (looked up)

T4: FcγRIIb extracellular domain with C-terminal His tag (human, UniProt P31994 43-217)
T4 construct: extracellular domain; also called FcgRIIb
T4 sequence (looked up): T1 sequence (looked up)

B1: IL6R-2B044/IL6R-L (antibody, human IgG1, kappa)
heavy: QVQLQESGPGLVKPSETLSLTCAVSGHSISHDHAWSWVRQPPGEGLEWIGFISYSGITNYNPSLQGRVTISRDNSKNTLYLQMNSLRAEDTAVYYCARSLARTTAMDYWGEGTLVTVSSASTKGPSVFPLAPSSKSTSGGTAALGCLVKDYFPEPVTVSWNSGALTSGVHTFPAVLQSSGLYSLSSVVTVPSSSLGTQTYICNVNHKPSNTKVDKKVEPKSCDKTHTCPPCPAPELLGGDSVLLFPPKPKDTLMISRTPEVTCVVVDVSHEDPEVKFNWYVDGVEVHNAKTKPREEQYNSTYRVVSVLTVLHQDWLNGKEYKCKVSNKALPAPIEKTISKAKGQPREPQVYTLPPSRDELTKNQVSLTCLVKGFYPSDIAVEWESNGQPENNYKTTPPVLDSDGSFFLYSKLTVDKSRWQQGNVFSCSVMHEALHNHYTQESLSLSP
light: not shown
B2: IL6R-2B045/IL6R-L (antibody, human IgG1, kappa)
heavy: B1 heavy with L243M
light: not shown
B3: IL6R-2B118/IL6R-L (antibody, human IgG1, kappa)
heavy: B1 heavy with L243F, Q297M
light: not shown
B4: IL6R-2B145/IL6R-L (antibody, human IgG1, kappa)
heavy: B1 heavy with L243F, S300A
light: not shown
B5: IL6R-2B132/IL6R-L (antibody, human IgG1, kappa)
heavy: B1 heavy with L243F, Y298H
light: not shown
B6: IL6R-2B128/IL6R-L (antibody, human IgG1, kappa)
heavy: B1 heavy with L243F, Y298D
light: not shown
B7: IL6R-2B124/IL6R-L (antibody, human IgG1, kappa)
heavy: B1 heavy with L243F, Q297V
light: not shown
B8: IL6R-2B137/IL6R-L (antibody, human IgG1, kappa)
heavy: B1 heavy with L243F, Y298N
light: not shown
B9: IL6R-2B129/IL6R-L (antibody, human IgG1, kappa)
heavy: B1 heavy with L243F, Y298E
light: not shown
B10: IL6R-BP191/IL6R-L (antibody, human IgG1, kappa, name in EU numbering)
heavy: B1 heavy with E235D, L243F, H270D, P273G, K328A, A332K
light: not shown
notes: IgG1; alterations on IL6R-B3, EU numbering
B11: IL6R-BP188/IL6R-L (antibody, human IgG1, kappa, name in EU numbering)
heavy: B1 heavy with E235D, G239D, L243F, H270D, P273G, A332K
light: not shown
notes: as for B10
B12: IL6R-BP223/IL6R-L (antibody, human IgG1, kappa, name in EU numbering)
heavy: B1 heavy with L236Y, G239D, L243F, H270D, P273G, K328A, A332R
light: not shown
notes: as for B10
B13: IL6R-BP186/IL6R-L (antibody, human IgG1, kappa, name in EU numbering)
heavy: B1 heavy with E235D, L236Y, G239D, L243F, P273G, Y298D, K328A, A332K
light: not shown
notes: as for B10
B14: IL6R-BP201/IL6R-L (antibody, human IgG1, kappa, name in EU numbering)
heavy: B1 heavy with E235D, G239D, L243F, P273G, A332R
light: not shown
notes: as for B10
B15: IL6R-BP187/IL6R-L (antibody, human IgG1, kappa, name in EU numbering)
heavy: B1 heavy with L236Y, L243F, P273G, K328A, A332K
light: not shown
notes: as for B10
B16: IL6R-BP204/IL6R-L (antibody, human IgG1, kappa, name in EU numbering)
heavy: B1 heavy with E235D, L243F, P273G, K328A, A332R
light: not shown
notes: as for B10
B17: IL6R-BP197/IL6R-L (antibody, human IgG1, kappa, name in EU numbering)
heavy: B1 heavy with E235D, L236Y, G239D, L243F, H270D, P273G, Y298D, K328D, A332K
light: not shown
notes: as for B10
B18: IL6R-BP210/IL6R-L (antibody, human IgG1, kappa, name in EU numbering)
heavy: B1 heavy with G239D, L243F, H270D, P273G, A332R
light: not shown
notes: as for B10
B19: IL6R-BP195/IL6R-L (antibody, human IgG1, kappa, name in EU numbering)
heavy: B1 heavy with E235D, L236Y, G239D, L243F, H270D, P273G, Y298D, K328A, A332K
light: not shown
notes: as for B10
B20: IL6R-BP183/IL6R-L (antibody, human IgG1, kappa, name in EU numbering)
heavy: B1 heavy with E235D, L236Y, L243F, P273G, K328A, A332K
light: not shown
notes: as for B10
B21: IL6R-BP203/IL6R-L (antibody, human IgG1, kappa, name in EU numbering)
heavy: B1 heavy with G239D, L243F, P273G, A332R
light: not shown
notes: as for B10
B22: IL6R-BP184/IL6R-L (antibody, human IgG1, kappa, name in EU numbering)
heavy: B1 heavy with E235D, L243F, P273G, A332K
light: not shown
notes: as for B10

One assay deals with T1, FcγRIIb extracellular domain, His tag. Kind of assay: SPR, bound amount per captured antibody. On the technique in general: SPR reads the build-up and loss of mass on a sensor chip optically.
With B1, the “Relative FcgRIIb-binding Activity” value is 65.5 % of IL6R-BF648/IL6R-L.

Take B2: the “Relative FcgRIIb-binding Activity” value was 81.1 % of IL6R-BF648/IL6R-L.

Turning to B3, the “Relative FcgRIIb-binding Activity” value was 96.3 % of IL6R-BF648/IL6R-L.

In the case of B4, the “Relative FcgRIIb-binding Activity” value is 55.5 % of IL6R-BF648/IL6R-L.

As for B5, the “Relative FcgRIIb-binding Activity” value was 89.1 % of IL6R-BF648/IL6R-L.

As for B6, the “Relative FcgRIIb-binding Activity” value was 102 % of IL6R-BF648/IL6R-L.

B7: the “Relative FcgRIIb-binding Activity” value was 72.9 % of IL6R-BF648/IL6R-L.

Turning to B8, the “Relative FcgRIIb-binding Activity” value was 98.3 % of IL6R-BF648/IL6R-L.

On to B9, for which the “Relative FcgRIIb-binding Activity” value was 93.3 % of IL6R-BF648/IL6R-L.

The target of the next assay is T2, FcγRIIa R type extracellular domain, …. Kind of assay: SPR, bound amount per captured antibody.
B1: the “Relative FcgRIIaR-binding Activity” value was 55.7 % of IL6R-BF648/IL6R-L.

For the molecule B2, the “Relative FcgRIIaR-binding Activity” value was 64.7 % of IL6R-BF648/IL6R-L.

For the molecule B3, the “Relative FcgRIIaR-binding Activity” value is 93.4 % of IL6R-BF648/IL6R-L.

For the molecule B4, the “Relative FcgRIIaR-binding Activity” value was 45.1 % of IL6R-BF648/IL6R-L.

For the molecule B5, the “Relative FcgRIIaR-binding Activity” value was 66.9 % of IL6R-BF648/IL6R-L.

For B6, the “Relative FcgRIIaR-binding Activity” value is 88.1 % of IL6R-BF648/IL6R-L.

Turning to B7, the “Relative FcgRIIaR-binding Activity” value was 65.2 % of IL6R-BF648/IL6R-L.

Regarding B8, the “Relative FcgRIIaR-binding Activity” value was 77.7 % of IL6R-BF648/IL6R-L.

Consider B9, for which the “Relative FcgRIIaR-binding Activity” value is 68.4 % of IL6R-BF648/IL6R-L.

For the next assay, the target named is T3, FcγRIIa R type extracellular domain …. Kind of assay: SPR (Biacore), FcgR as analyte.
B10: binding was characterised by a dissociation constant (Kd) of 3000 nM.

Consider B11, for which the dissociation constant (Kd) – broadly, the constant that tells how readily two partners part at equilibrium – turned out to be 1000 nM.

The molecule B12 displayed a Kd of 600 nM.

For B13, binding was put at a Kd of 960 nM.

The molecule B14 returned a Kd of 840 nM.

For the molecule B15, the Kd came out at 2800 nM.

B16 showed a dissociation constant Kd of 4500 nM.

B17 registered a Kd of 980 nM.

As to B18, the Kd worked out at 1000 nM.

B19 had a Kd of 910 nM.

B20 showed a Kd of 2600 nM.

For B21, the equilibrium dissociation constant (Kd) stood at 990 nM.

Molecule B22 gave a dissociation constant Kd of 2300 nM.

For a further assay, the target named is T5, FcγRIa extracellular domain with C-terminal His tag (human, UniProt P12314 16-292).
T5 construct: also called FcgRIa
T5 sequence (P12314 16-292): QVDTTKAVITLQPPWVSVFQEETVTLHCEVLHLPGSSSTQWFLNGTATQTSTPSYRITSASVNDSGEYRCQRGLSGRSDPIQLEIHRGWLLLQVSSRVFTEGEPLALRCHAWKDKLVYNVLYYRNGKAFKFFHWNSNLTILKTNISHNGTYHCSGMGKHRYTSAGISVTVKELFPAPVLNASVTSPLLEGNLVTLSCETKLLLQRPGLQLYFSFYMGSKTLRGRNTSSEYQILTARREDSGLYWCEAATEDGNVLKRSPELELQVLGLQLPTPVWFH
Kind of assay: SPR (Biacore), FcgR as analyte.
B10: the dissociation constant Kd worked out at 4 nM.

Molecule B15 yielded a Kd of 25 nM.

The molecule B21 showed a Kd of 180 nM.

Another assay deals with T4, FcγRIIb extracellular domain with …. The experiment in a line: SPR (Biacore), FcgR as analyte.
For B14, binding was put at a Kd of 40 nM.

As to B19, the affinity, expressed as Kd, was 50 nM.
